Measurements from patent US20100166827A1.

Molecular target: αVβ1/3/5 integrins located in the cardiomyocyte cell membrane
Test: cell-based or functional assay

half-maximal stimulation of DNA synthesis in primary neonatal rat ventricular cardiomyocytes (BrdU uptake): 155 nM
Substance: Recombinant periostin, purified from HEK293 cells expressing the full-length human cDNA (from UniProt Q15063 22-836) (ligand)
